The source of these data is paper PMC8481289 (2021).

The target of assay [1] is UBA5 Y372A (human, UniProt Q9GZZ9 1-404, Y372A). The experiment in a line: ITC.
Assay [2] concerns the target UBA5 333–404 (human, UniProt Q9GZZ9 333-404). The experiment in a line: ITC. In general terms: Isothermal titration calorimetry measures the heat released or taken up as one component is titrated into another.

Chain of UBA5 Y372A (Q9GZZ9 whole entry Y372A): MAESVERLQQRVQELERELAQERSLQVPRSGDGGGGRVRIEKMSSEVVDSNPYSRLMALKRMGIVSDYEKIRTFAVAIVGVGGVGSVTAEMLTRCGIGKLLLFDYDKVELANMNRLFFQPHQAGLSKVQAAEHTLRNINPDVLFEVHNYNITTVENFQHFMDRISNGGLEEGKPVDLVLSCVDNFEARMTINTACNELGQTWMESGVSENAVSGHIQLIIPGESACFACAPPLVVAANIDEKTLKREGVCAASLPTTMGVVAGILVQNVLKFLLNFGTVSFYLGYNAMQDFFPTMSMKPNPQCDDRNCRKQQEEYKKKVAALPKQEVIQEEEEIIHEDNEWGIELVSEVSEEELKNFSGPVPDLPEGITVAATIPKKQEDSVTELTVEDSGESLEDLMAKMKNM
Chain of UBA5 333–404 (Q9GZZ9 333-404): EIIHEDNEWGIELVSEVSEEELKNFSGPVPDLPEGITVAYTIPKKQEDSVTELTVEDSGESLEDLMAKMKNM

B1: UFC1 (WT) (enzyme)
chain: MADEATRRVVSEIPVLKTNAGPRDRELWVQRLKEEYQSLIRYVENNKNADNDWFRLESNKEGTRWFGKCWYIHDLLKYEFDIEFDIPITYPTTAPEIAVPELDGKTAKMYRGGKICLTDHFKPLWARNVPKFGLAHLMALGLGPWLAVEIPDLIQKGVIQHKEKCNQ
In general, Kd refers to the free concentration of one partner at which half of the binding sites on the other are occupied at equilibrium, for simple one-to-one binding. A higher Kd goes with weaker binding. Take B1: the Kd in assay [1] worked out at 1.9 µM; in assay [2], 2.5 µM.
